# Legend:
# [1] = molecular target: GST-MNK1b (human, UniProt Q9BUB5-3 1-347); assay: ELONA
# [2] = molecular target: T1, His-MNK1b (rMNK1b) (UniProt Q9BUB5-3 1-347); assay: ELONA
# [3] = molecular target: T1, His-MNK1b (rMNK1b); assay: Ni-NTA pull-down with qPCR
Binder,Kd [1] [nM],binding result [2],binding result [3]
apMNK3R (ssDNA) DNA: GTTGCTCGTATTTAGGGCGGGGGTGGGCGGATTTCGCAGGTGGCGTGTACACCAGTCTTCATCCGC,6.36 ± 1.72,–,–
apMNK3F (ssDNA) DNA: GCGGATGAAGACTGGTGTACACGCCACCTGCGAAATCCGCCCACCCCCGCCCTAAATACGAGCAAC,–,binds,–
apMNK4R (ssDNA) DNA: GTTGCTCGTATTTAGGGCACACACGACGAAGACCTGGCTGCCCGTTGTACACCAGTCTTCATCCGC,–,–,binds
apMNK1F (ssDNA) DNA: GCGGATGAAGACTGGTGTACACGCCGAACCCATTGTTCCAGGCGACATGCCCTAAATACGAGCAAC,–,–,binds
apMNK4F (ssDNA) DNA: GCGGATGAAGACTGGTGTACAACGGGCAGCCAGGTCTTCGTCGTGTGTGCCCTAAATACGAGCAAC,–,binds,–
apMNK2F (ssDNA) DNA: GCGGATGAAGACTGGTGTGGGGTGGGCGGGCGGGGGTGGGGGTGGTATGGCGCGTTGGCCCTAAATACGAGCAAC,1.79 ± 0.48,–,–
